# B1: SNAP-tagged full-length mGluR2 (HA-SNAP-mGluR2) (receptor, rat, UniProt P31421 19-872, looked up)
# chain: EGPAKKVLTLEGDLVLGGLFPVHQKGGPAEECGPVNEHRGIQRLEAMLFALDRINRDPHLLPGVRLGAHILDSCSKDTHALEQALDFVRASLSRGADGSRHICPDGSYATHSDAPTAVTGVIGGSYSDVSIQVANLLRLFQIPQISYASTSAKLSDKSRYDYFARTVPPDFFQAKAMAEILRFFNWTYVSTVASEGDYGETGIEAFELEARARNICVATSEKVGRAMSRAAFEGVVRALLQKPSARVAVLFTRSEDARELLAATQRLNASFTWVASDGWGALESVVAGSERAAEGAITIELASYPISDFASYFQSLDPWNNSRNPWFREFWEERFHCSFRQRDCAAHSLRAVPFEQESKIMFVVNAVYAMAHALHNMHRALCPNTTHLCDAMRPVNGRRLYKDFVLNVKFDAPFRPADTDDEVRFDRFGDGIGRYNIFTYLRAGSGRYRYQKVGYWAEGLTLDTSFIPWASPSAGPLPASRCSEPCLQNEVKSVQPGEVCCWLCIPCQPYEYRLDEFTCADCGLGYWPNASLTGCFELPQEYIRWGDAWAVGPVTIACLGALATLFVLGVFVRHNATPVVKASGRELCYILLGGVFLCYCMTFVFIAKPSTAVCTLRRLGLGTAFSVCYSALLTKTNRIARIFGGAREGAQRPRFISPASQVAICLALISGQLLIVAAWLVVEAPGTGKETAPERREVVTLRCNHRDASMLGSLAYNVLLIALCTLYAFKTRKCPENFNEAKFIGFTMYTTCIIWLAFLPIFYVTSSDYRVQTTTMCVSVSLSGSVVLGCLFAPKLHIILFQPQKNVVSHRAPTSRFGSAAPRASANLGQGSGSQFVPTVCNGREVVDSTTSSL
# modifications: SNAP tag labelled with BG-LD555 (SiMPull); SNAP tag labelled with donor and acceptor fluorophores (inter-LBD FRET)
# notes: metabotropic glutamate receptor 2 (mGluR2), rat, full-length, behind N-terminal HA and SNAP tags; construct of Doumazane et al., 2011; also called mGluR2-WT; WT-SNAP-mGluR2; source: HEK 293T, transfected; surface-labelled, in detergent lysate (SiMPull); on living cells (FRET); not shown: HA, N-terminal, kept; SNAP, N-terminal, kept
# B2: SNAP-mGluR1-TMD (domain or fragment, rat, UniProt P23385 583-1199, looked up)
# chain: VRYLEWSDIESIIAIAFSCLGILVTLFVTLIFVLYRDTPVVKSSSRELCYIILAGIFLGYVCPFTLIAKPTTTSCYLQRLLVGLSSAMCYSALVTKTNRIARILAGSKKKICTRKPRFMSAWAQVIIASILISVQLTLVVTLIIMEPPMPILSYPSIKEVYLICNTSNLGVVAPVGYNGLLIMSCTYYAFKTRNVPANFNEAKYIAFTMYTTCIIWLAFVPIYFGSNYKIITTCFAVSLSVTVALGCMFTPKMYIIIAKPERNVRSAFTTSDVVRMHVGDGKLPCRSNTFLNIFRRKKPGAGNANSNGKSVSWSEPGGRQAPKGQHVWQRLSVHVKTNETACNQTAVIKPLTKSYQGSGKSLTFSDASTKTLYNVEEEDNTPSAHFSPPSSPSMVVHRRGPPVATTPPLPPHLTAEETPLFLADSVIPKGLPPPLPQQQPQQPPPQQPPQQPKSLMDQLQGVVTNFGSGIPDFHAVLAGPGTPGNSLRSLYPPPPPPQHLQMLPLHLSTFQEESISPPGEDIDDDSERFKLLQEFVYEREGNTEEDELEEEEDLPTASKLTPEDSPALTPPSPFRDSVASGSSVPSSPVSESVLCTPPNVTYASVILRDYKQSSSTL
# modifications: SNAP tag labelled with BG-LD555
# notes: LBD and CRD deleted; following the SNAP tag the receptor starts at V583; Made by modifying the full-length SNAP-tagged cDNA of Doumazane et al., 2011; source: HEK 293T, transfected, surface-labelled, in detergent lysate; not shown: HA, N-terminal, kept; SNAP, N-terminal, kept
# B3: SNAP-mGluR3-TMD (domain or fragment, rat, UniProt P31422 567-879, looked up)
# chain: EDYIKWEDAWAIGPVTIACLGFLCTCIVITVFIKHNNTPLVKASGRELCYILLFGVSLSYCMTFFFIAKPSPVICALRRLGLGTSFAICYSALLTKTNCIARIFDGVKNGAQRPKFISPSSQVFICLGLILVQIVMVSVWLILETPGTRRYTLPEKRETVILKCNVKDSSMLISLTYDVVLVILCTVYAFKTRKCPENFNEAKFIGFTMYTTCIIWLAFLPIFYVTSSDYRVQTTTMCISVSLSGFVVLGCLFAPKVHIVLFQPQKNVVTHRLHLNRFSVSGTATTYSQSSASTYVPTVCNGREVLDSTTSSL
# modifications: SNAP tag labelled with BG-LD555
# notes: mGluR3, rat; LBD and CRD deleted; following the SNAP tag the receptor starts at E567; Made by modifying the full-length SNAP-tagged cDNA of Doumazane et al., 2011; source: HEK 293T, transfected, surface-labelled, in detergent lysate; not shown: HA, N-terminal, kept; SNAP, N-terminal, kept
# B4: SNAP-mGluR5-TMD (domain or fragment, human, UniProt P41594 570-1212, looked up)
# chain: VQYLRWGDPEPIAAVVFACLGLLATLFVTVVFIIYRDTPVVKSSSRELCYIILAGICLGYLCTFCLIAKPKQIYCYLQRIGIGLSPAMSYSALVTKTNRIARILAGSKKKICTKKPRFMSACAQLVIAFILICIQLGIIVALFIMEPPDIMHDYPSIREVYLICNTTNLGVVTPLGYNGLLILSCTFYAFKTRNVPANFNEAKYIAFTMYTTCIIWLAFVPIYFGSNYKIITMCFSVSLSATVALGCMFVPKVYIILAKPERNVRSAFTTSTVVRMHVGDGKSSSAASRSSSLVNLWKRRGSSGETLRYKDRRLAQHKSEIECFTPKGSMGNGGRATMSSSNGKSVTWAQNEKSSRGQHLWQRLSIHINKKENPNQTAVIKPFPKSTESRGLGAGAGAGGSAGGVGATGGAGCAGAGPGGPESPDAGPKALYDVAEAEEHFPAPARPRSPSPISTLSHRAGSASRTDDDVPSLHSEPVARSSSSQGSLMEQISSVVTRFTANISELNSMMLSTAAPSPGVGAPLCSSYLIPKEIQLPTTMTTFAEIQPLPAIEVTGGAQPAAGAQAAGDAARESPAAGPEAAAAKPDLEELVALTPPSPFRDSVDSGSTTPNSPVSESALCIPSSPKYDTLIIRDYTQSSSSL
# modifications: SNAP tag labelled with BG-LD555 (SiMPull); with donor and acceptor fluorophores (FRET)
# notes: mGluR5, human; LBD and CRD deleted; following the SNAP tag the receptor starts at V570; Made by modifying the full-length SNAP-tagged cDNA of Doumazane et al., 2011; source: HEK 293T, transfected; surface-labelled, in detergent lysate (SiMPull); on living cells (FRET); not shown: HA, N-terminal, kept; SNAP, N-terminal, kept
# B5: SNAP-mGluR2-TMD (HA-SNAP-tagged isolated transmembrane domain of mGluR2) (domain or fragment, rat, UniProt P31421 558-872, looked up)
# chain: QEYIRWGDAWAVGPVTIACLGALATLFVLGVFVRHNATPVVKASGRELCYILLGGVFLCYCMTFVFIAKPSTAVCTLRRLGLGTAFSVCYSALLTKTNRIARIFGGAREGAQRPRFISPASQVAICLALISGQLLIVAAWLVVEAPGTGKETAPERREVVTLRCNHRDASMLGSLAYNVLLIALCTLYAFKTRKCPENFNEAKFIGFTMYTTCIIWLAFLPIFYVTSSDYRVQTTTMCVSVSLSGSVVLGCLFAPKLHIILFQPQKNVVSHRAPTSRFGSAAPRASANLGQGSGSQFVPTVCNGREVVDSTTSSL
# modifications: SNAP tag labelled with BG-LD555 (SiMPull); with BG-LD655 as acceptor or with a mixture of BG-LD555 and BG-LD655 (FRET)
# notes: mGluR2, rat; LBD and CRD deleted; following the SNAP tag the receptor starts at Q558; Made by modifying the full-length SNAP-tagged cDNA of Doumazane et al., 2011; also called HA-SNAP-mGluR2-TMD; isolated mGluR2 TMD; source: HEK 293T, transfected; surface-labelled, in detergent lysate (SiMPull); on living cells (FRET); not shown: HA, N-terminal, kept; SNAP, N-terminal, kept
# Target: the molecule itself
# Test: single-molecule pulldown (SiMPull) with subunit counting by photobleaching steps; surface receptors labelled with BG-LD555 on HEK 293T cells, lysed in 1.2% IGEPAL, diluted in 0.1% IGEPAL, immobilised by biotinylated anti-HA antibody on a PEG-passivated coverslip, TIRF imaging; SNAP labelling efficiency ~80%; background two-step bleaching ~5-10%
Protein,percent of spots bleaching in two steps,stoichiometry N
B1,~60%,2
B2,~30%,2
B3,~30%,2
B4,~30%,2
B5,~45%,2
